Data published in the supplement of paper PMC10724198.
± gives the standard deviation of the averaged measurements.

system: Saccharomyces cerevisiae; test: protein stability index of tFT-peptide fusion (C-terminal peptide) (PSI (0-1 scale)); higher = more stable (slower turnover); conditions: genetic background: wild type; temperature: 30 C
Method: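 Multiplexed protein stability (MPS) profiling in S. cerevisiae. Random 12-aa peptides (tFT-X12 library) are fused to the C-terminus of a sfGFP-mCherry tandem fluorescent timer, after mCherry and a GGGS linker. Cells are FACS-sorted into 8 mCherry/sfGFP bins and deep-sequenced. The protein stability index (PSI) is the read-weighted bin average, scaled from 0 (unstable) to 1 (stable). Only peptides with >10 reads are reported; cells were grown at 30 °C in SC-His with glucose.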
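Further: PSI is a weighted mean of sequencing reads over stability bins, variants kept only with over 10 reads, mCherry proximal and sfGFP distal, peptide attached via GGGS linker.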

Row | Sequence | protein stability index
1 | FECDYLLCGAGL | 0.744 ± 0.029
2 | FELTSATWRGCF | 0.685 ± 0.094
3 | FEVRLRCLGYSG | 0.718 ± 0.015
4 | FFDPPPSLSALI | 0.7724 ± 0.0037
5 | FFEVFDNYRSLV | 0.684 ± 0.051
6 | FFFFPFLPFSWF | 0.507 ± 0.0084
7 | FFITFGFSSGSR | 0.675 ± 0.068
8 | FFPSPHVPPPPP | 0.617 ± 0.018
9 | FFPSPPPVLSPP | 0.747 ± 0.021
10 | FFSGYVVSTRHM | 0.702 ± 0.089
11 | FFSMVFVFGFRA | 0.5 ± 0.015
12 | FFSRFCYGFGRM | 0.723 ± 0.066
13 | FFSSALILSLRL | 0.533 ± 0.023
14 | FFVGAGGTEGLG | 0.705 ± 0.0088
15 | FFVVGEEFCVSV | 0.649 ± 0.054
16 | FGASSGSARVCG | 0.682 ± 0.083
17 | FGEAFYVGCVHV | 0.698 ± 0.037
18 | FGFLDRVLLFRV | 0.547 ± 0.013
19 | FGFSSGRVRQRV | 0.754 ± 0.011
20 | FGGSGAYRRVGE | 0.7 ± 0.072
21 | FGGVGRGGLLWC | 0.7749 ± 0.0041
22 | FGIGWNDRLVEC | 0.669 ± 0.057
23 | FGSCVIFAAHWF | 0.6467 ± 0.0025
24 | FGSVGSIRTPDG | 0.707 ± 0.0086
25 | FGTKSLPSLLAM | 0.583 ± 0.034

Row | Sequence | protein stability index
26 | FGVRPVSVPLCG | 0.592 ± 0.047
27 | FGVSFFSGVNGV | 0.681 ± 0.011
28 | FGWKTGGRGTVM | 0.742 ± 0.04
29 | FHFFSFLSSVGF | 0.6434 ± 0.0062
30 | FHFPHPFLPFPS | 0.666 ± 0.12
31 | FHPRLGVRLGIT | 0.632 ± 0.046
32 | FHPRPPLLPSLP | 0.6435 ± 0.003
33 | FHRESAEPSLWS | 0.697 ± 0.11
34 | FHRHILCSDPRL | 0.709 ± 0.022
35 | FHRSNFLPFFHL | 0.593 ± 0.092
36 | FHYALRLLDFNN | 0.716 ± 0.12
37 | FIFHFLMFPGPL | 0.56 ± 0.013
38 | FIGLGPGVGGVW | 0.704 ± 0.028
39 | FIIIKTKKMTMK | 0.7 ± 0.064
40 | FIKTSDAVIGEK | 0.563 ± 0.017
41 | FISVFYMLFPYR | 0.626 ± 0.013
42 | FIVPLFPVFFSS | 0.621 ± 0.05
43 | FLAWPRSDYPGF | 0.732 ± 0.022
44 | FLCLVASLFRFA | 0.585 ± 0.043
45 | FLCSRYRGYMPT | 0.632 ± 0.086
46 | FLFCWGCCRLFW | 0.581 ± 0.1
47 | FLFGILFTSRAV | 0.5311 ± 0.0015
48 | FLFTLPPPPRCH | 0.709 ± 0.088
49 | FLGLDLVFRFFV | 0.554 ± 0.066
50 | FLGQPLSFSHVL | 0.692 ± 0.035

Row | Sequence | protein stability index
51 | FLIRSSQSFELE | 0.715 ± 0.035
52 | FLKGTTSQQDYT | 0.7022 ± 0.0056
53 | FLLFASPPPRPL | 0.715 ± 0.017
54 | FLLPPPFLPLPL | 0.691 ± 0.028
55 | FLLSARGVIVFW | 0.544 ± 0.018
56 | FLLSLYSVPFVL | 0.63984 ± 0.00021
57 | FLNRDGFETLFC | 0.686 ± 0.022
58 | FLPPPPRRPFTR | 0.6282 ± 0.0057
59 | FLPRGPLPPSPF | 0.595 ± 0.026
60 | FLRCALRLRFGF | 0.671 ± 0.038
61 | FLRGRTPLTAGD | 0.582 ± 0.022
62 | FLSEPAKRILYL | 0.667 ± 0.018
63 | FLSFFVLGVPGG | 0.707 ± 0.039
64 | FLSHISVPRGKT | 0.773 ± 0.034
65 | FLVREGIGKRGC | 0.641 ± 0.072
66 | FLVRMIYYRRHP | 0.616 ± 0.028
67 | FMSGIVDLQRPL | 0.691 ± 0.034
68 | FMVFCFPFTGVL | 0.562 ± 0.022
69 | FMVVKWSPCAWC | 0.539 ± 0.026
70 | FNFSSGLTGSWL | 0.763 ± 0.024
71 | FPASPQPPPPLP | 0.627 ± 0.024
72 | FPDGLGSVPRSP | 0.68389 ± 0.0004
73 | FPFTLSPTLFHS | 0.714 ± 0.08
74 | FPLFRSLLLFAP | 0.5331 ± 0.00081
75 | FPLLCAAPLLSS | 0.594 ± 0.0012

Row | Sequence | protein stability index
76 | FPLYKQKSGITY | 0.651 ± 0.0081
77 | FPPARPDFPPST | 0.735 ± 0.025
78 | FPPIHIHSPCYP | 0.765 ± 0.021
79 | FPPPPLYFPFPL | 0.693 ± 0.017
80 | FPQSDFFLLILS | 0.549 ± 0.013
81 | FPRPACRSTHIL | 0.671 ± 0.065
82 | FPRPPSVLACRP | 0.645 ± 0.088
83 | FPRVTGTKPPPA | 0.7201 ± 0.0023
84 | FPSPPLPSSSTS | 0.708 ± 0.051
85 | FQAERTGVTRAR | 0.666 ± 0.0078
86 | FQAVSPRFLVLP | 0.64 ± 0.046
87 | FQGSDCLYFGLL | 0.741 ± 0.043
88 | FQHFGAPPTWHE | 0.742 ± 0.093
89 | FQVCAPLPISRS | 0.717 ± 0.029
90 | FRAPVLCPSYYS | 0.7064 ± 0.0049
91 | FRDPPSILTSDT | 0.621 ± 0.017
92 | FRGAGAEGSGWG | 0.634 ± 0.0066
93 | FRLILGCPFACL | 0.576 ± 0.034
94 | FRLKRFSGTGYG | 0.698 ± 0.035
95 | FRLPAIRRGHDS | 0.69 ± 0.069
96 | FRRILGTIKLGR | 0.69 ± 0.023
97 | FRTVRSMVGRRP | 0.721 ± 0.077
98 | FRWGGPSGEVRE | 0.643 ± 0.1
